From paper PMC2974754 (The Plant journal : for cell and molecular biology, 2010)
“Also recorded” adds a separate entry of the source. Values belong to the molecule of their own block, whether it stands above or below them. Residues, ends and D or L forms follow the SMILES beside them. No end group written: not given here.

What was measured:
CLV1 [1] = settings: cold competitor to radiolabeled CLV3 CLE; ref Kondo et al. 2008, Ogawa et al. 2008; cited from earlier work
[2] = stated in peptide description, no test or reference named; cited from earlier work
[3] = target: CLV2-MYC (transient expression in N. benthamiana) (Arabidopsis thaliana) (UniProt O80809); assay: radioligand binding
[4] = target: BAM1-GFP (transient expression in N. benthamiana) (Arabidopsis thaliana) (UniProt O49545); assay: radioligand binding
[5] = target: CLV1-GFP (transient expression in N. benthamiana) (Arabidopsis thaliana) (UniProt Q9SYQ8); assay: radioligand binding
[6] = target: BAM2-GFP (transient expression in N. benthamiana) (Arabidopsis thaliana) (UniProt Q9M2Z1); assay: radioligand binding
Arabidopsis plants = settings: synthetic peptides treating Arabidopsis plants; ref Kinoshita et al. 2007; cited from earlier work
CLV1 [7] = settings: truncated CLV1 LRR domain expressed in tobacco BY-2 cells; ref Ogawa et al. 2008; cited from earlier work
[8] = target: T1, CLV1-GFP (transient expression in N. benthamiana) (Arabidopsis thaliana, UniProt Q9SYQ8 25-980); assay: co-IP
T1 sequence (looked up): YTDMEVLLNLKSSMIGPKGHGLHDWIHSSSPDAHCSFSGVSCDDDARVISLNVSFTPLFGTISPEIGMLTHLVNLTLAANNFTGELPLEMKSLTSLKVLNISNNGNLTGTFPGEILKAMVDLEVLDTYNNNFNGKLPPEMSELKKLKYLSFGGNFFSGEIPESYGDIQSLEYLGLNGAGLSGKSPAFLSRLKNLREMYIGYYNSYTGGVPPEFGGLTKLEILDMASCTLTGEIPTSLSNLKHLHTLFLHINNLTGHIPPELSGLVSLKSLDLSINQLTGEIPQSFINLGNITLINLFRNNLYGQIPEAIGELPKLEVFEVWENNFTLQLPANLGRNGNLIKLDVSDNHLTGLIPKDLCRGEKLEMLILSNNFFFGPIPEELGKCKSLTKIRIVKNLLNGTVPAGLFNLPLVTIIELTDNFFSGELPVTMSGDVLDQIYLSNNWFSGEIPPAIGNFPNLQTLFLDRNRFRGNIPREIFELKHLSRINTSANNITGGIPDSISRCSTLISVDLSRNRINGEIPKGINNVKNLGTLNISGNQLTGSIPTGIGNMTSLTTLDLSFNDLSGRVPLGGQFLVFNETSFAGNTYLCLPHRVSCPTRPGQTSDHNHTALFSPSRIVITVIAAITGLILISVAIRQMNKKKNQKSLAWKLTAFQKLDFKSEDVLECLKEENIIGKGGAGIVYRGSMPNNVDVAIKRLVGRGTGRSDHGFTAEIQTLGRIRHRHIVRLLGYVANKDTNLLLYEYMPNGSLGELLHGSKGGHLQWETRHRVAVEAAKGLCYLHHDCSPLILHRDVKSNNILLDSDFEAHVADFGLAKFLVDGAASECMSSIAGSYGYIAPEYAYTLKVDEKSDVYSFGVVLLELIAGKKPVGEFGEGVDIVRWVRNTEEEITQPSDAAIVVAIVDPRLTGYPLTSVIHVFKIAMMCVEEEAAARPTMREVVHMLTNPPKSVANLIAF

[9] = target: T2, CLV1-FLAG (transient expression in N. benthamiana) (Arabidopsis thaliana, UniProt Q9SYQ8 25-980); assay: co-IP
T2 sequence (looked up): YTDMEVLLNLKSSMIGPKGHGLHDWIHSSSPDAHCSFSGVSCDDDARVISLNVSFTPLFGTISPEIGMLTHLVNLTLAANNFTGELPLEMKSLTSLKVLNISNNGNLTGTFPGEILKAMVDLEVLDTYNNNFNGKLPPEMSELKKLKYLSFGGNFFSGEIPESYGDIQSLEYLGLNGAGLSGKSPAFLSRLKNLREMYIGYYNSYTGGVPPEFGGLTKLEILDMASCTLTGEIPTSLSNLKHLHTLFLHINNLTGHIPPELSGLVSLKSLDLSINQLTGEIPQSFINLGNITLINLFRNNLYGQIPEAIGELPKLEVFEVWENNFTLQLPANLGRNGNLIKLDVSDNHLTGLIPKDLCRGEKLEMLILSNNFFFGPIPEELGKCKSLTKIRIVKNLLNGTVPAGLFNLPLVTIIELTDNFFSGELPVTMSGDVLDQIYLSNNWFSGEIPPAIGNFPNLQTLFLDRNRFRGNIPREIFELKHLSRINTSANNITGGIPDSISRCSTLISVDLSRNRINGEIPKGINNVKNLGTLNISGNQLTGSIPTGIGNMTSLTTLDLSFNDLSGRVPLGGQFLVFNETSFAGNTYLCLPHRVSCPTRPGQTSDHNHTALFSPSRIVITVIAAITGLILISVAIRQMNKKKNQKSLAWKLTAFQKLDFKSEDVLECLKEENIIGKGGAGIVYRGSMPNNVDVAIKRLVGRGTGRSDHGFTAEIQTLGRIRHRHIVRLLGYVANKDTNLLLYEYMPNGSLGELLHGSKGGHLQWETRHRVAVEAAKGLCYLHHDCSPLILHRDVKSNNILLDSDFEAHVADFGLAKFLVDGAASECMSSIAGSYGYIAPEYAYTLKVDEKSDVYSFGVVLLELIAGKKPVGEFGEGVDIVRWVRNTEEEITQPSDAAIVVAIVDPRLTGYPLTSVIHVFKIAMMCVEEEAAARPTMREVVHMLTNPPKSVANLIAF

[10] = target: T3, CRN-GFP (transient expression in N. benthamiana) (Arabidopsis thaliana, UniProt Q9LYU7 34-401); assay: co-IP
T3 sequence (looked up): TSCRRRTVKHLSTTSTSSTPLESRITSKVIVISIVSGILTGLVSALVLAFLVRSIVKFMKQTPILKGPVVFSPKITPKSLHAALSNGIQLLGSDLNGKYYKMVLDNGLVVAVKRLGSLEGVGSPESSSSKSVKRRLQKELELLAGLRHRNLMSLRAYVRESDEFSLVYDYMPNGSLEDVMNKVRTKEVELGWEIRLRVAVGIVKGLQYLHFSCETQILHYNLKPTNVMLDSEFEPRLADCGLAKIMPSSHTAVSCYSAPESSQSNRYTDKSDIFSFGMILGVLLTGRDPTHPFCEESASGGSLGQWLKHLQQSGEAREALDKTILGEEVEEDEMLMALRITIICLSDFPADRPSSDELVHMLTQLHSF

Sequence of BAM1-GFP (transient expression in N. benthamiana) (Arabidopsis thaliana) (O49545 20-1003): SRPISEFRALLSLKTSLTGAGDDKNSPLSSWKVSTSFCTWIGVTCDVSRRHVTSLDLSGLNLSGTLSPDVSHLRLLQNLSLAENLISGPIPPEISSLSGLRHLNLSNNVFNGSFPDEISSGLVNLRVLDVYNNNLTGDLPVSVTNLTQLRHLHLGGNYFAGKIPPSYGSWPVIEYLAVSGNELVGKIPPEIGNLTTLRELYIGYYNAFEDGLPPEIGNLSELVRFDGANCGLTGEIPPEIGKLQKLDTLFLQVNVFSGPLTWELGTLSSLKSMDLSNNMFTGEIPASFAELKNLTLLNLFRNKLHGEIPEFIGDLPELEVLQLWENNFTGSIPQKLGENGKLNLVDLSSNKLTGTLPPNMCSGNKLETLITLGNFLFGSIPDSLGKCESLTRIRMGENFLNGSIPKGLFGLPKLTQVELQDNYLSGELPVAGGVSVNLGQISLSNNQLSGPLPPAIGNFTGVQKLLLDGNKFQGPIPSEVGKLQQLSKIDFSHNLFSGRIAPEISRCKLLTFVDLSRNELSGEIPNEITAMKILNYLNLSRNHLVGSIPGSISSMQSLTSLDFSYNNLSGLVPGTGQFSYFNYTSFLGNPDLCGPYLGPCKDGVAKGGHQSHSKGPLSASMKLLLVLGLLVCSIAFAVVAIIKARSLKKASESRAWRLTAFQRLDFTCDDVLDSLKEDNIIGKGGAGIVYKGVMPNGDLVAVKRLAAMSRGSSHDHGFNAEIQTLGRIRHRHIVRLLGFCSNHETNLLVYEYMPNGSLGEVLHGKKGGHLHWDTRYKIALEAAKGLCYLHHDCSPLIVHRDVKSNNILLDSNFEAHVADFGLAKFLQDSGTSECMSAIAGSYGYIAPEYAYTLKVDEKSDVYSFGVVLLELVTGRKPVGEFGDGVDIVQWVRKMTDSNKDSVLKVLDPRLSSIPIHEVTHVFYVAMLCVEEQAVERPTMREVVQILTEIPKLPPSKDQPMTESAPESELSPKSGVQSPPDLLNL

Molecule: CLV3S: CLV3S (Thr71-His81) which only contains a portion of the CLE domain and is nonfunctional (TVPSGPDPLHH; ends and bridges not checked)
competition of CLV3S at CLV1, previously reported (CLV1 [1]): unable to compete
functionality of the peptide [2]: nonfunctional

Kd [3]: 32 nM
Kd [4]: 26 nM
Kd [5]: 30 nM
Kd [6]: 36 nM
Molecule: 125I-radiolabeled CLV3 CLE peptide

Molecule: CLE25: CLE peptide (RKVPNGPDPIHN; ends and bridges not checked; UniProt Q8LFL4 58-69, looked up)
effect on size of the SAM (Arabidopsis plants): caused reduced size of the SAM

Molecule: CC(C)C[C@H](NC(=O)[C@@H]1CCCN1C(=O)[C@H](CC(=O)O)NC(=O)[C@@H]1CCCN1C(=O)CNC(=O)[C@H](CO)NC(=O)[C@@H]1CCCN1C(=O)[C@@H](NC(=O)[C@@H](NC(=O)[C@@H](N)CCCNC(=N)N)[C@@H](C)O)C(C)C)C(=O)N[C@@H](Cc1c[nH]cn1)C(=O)N[C@@H](Cc1c[nH]cn1)C(=O)O [CLV3 CLE] (H-RTVPSGPDPLHH-OH)
binding to CLV1 (LRR / extracellular domain) (CLV1 [7]): bind to the truncated CLV1 LRR domain; also recorded: binds to the CLV3 CLE peptide through its extracellular domain

Molecule: CLV3L: CLV3L (Arg70-Pro96) which includes the full CLV3 CLE domain plus the extended C-terminal tail and is partially functional (RTVPSGPDPLHHHVNPPRQPRNNFQLP; ends and bridges not checked; UniProt Q9XF04 70-96, looked up, fragment)
functionality of the peptide [2]: partially functional

percent co-immunoprecipitated [8]: 10%
B1: BAM2-FLAG (transient expression in N. benthamiana) (receptor, Arabidopsis thaliana, UniProt Q9M2Z1 23-1002, looked up)
chain: KPITELHALLSLKSSFTIDEHSPLLTSWNLSTTFCSWTGVTCDVSLRHVTSLDLSGLNLSGTLSSDVAHLPLLQNLSLAANQISGPIPPQISNLYELRHLNLSNNVFNGSFPDELSSGLVNLRVLDLYNNNLTGDLPVSLTNLTQLRHLHLGGNYFSGKIPATYGTWPVLEYLAVSGNELTGKIPPEIGNLTTLRELYIGYYNAFENGLPPEIGNLSELVRFDAANCGLTGEIPPEIGKLQKLDTLFLQVNAFTGTITQELGLISSLKSMDLSNNMFTGEIPTSFSQLKNLTLLNLFRNKLYGAIPEFIGEMPELEVLQLWENNFTGSIPQKLGENGRLVILDLSSNKLTGTLPPNMCSGNRLMTLITLGNFLFGSIPDSLGKCESLTRIRMGENFLNGSIPKELFGLPKLSQVELQDNYLTGELPISGGGVSGDLGQISLSNNQLSGSLPAAIGNLSGVQKLLLDGNKFSGSIPPEIGRLQQLSKLDFSHNLFSGRIAPEISRCKLLTFVDLSRNELSGDIPNELTGMKILNYLNLSRNHLVGSIPVTIASMQSLTSVDFSYNNLSGLVPSTGQFSYFNYTSFVGNSHLCGPYLGPCGKGTHQSHVKPLSATTKLLLVLGLLFCSMVFAIVAIIKARSLRNASEAKAWRLTAFQRLDFTCDDVLDSLKEDNIIGKGGAGIVYKGTMPKGDLVAVKRLATMSHGSSHDHGFNAEIQTLGRIRHRHIVRLLGFCSNHETNLLVYEYMPNGSLGEVLHGKKGGHLHWNTRYKIALEAAKGLCYLHHDCSPLIVHRDVKSNNILLDSNFEAHVADFGLAKFLQDSGTSECMSAIAGSYGYIAPEYAYTLKVDEKSDVYSFGVVLLELITGKKPVGEFGDGVDIVQWVRSMTDSNKDCVLKVIDLRLSSVPVHEVTHVFYVALLCVEEQAVERPTMREVVQILTEIPKIPLSKQQAAESDVTEKAPAINESSPDSGSPPDLLSN

percent co-immunoprecipitated [9]: 2.5%
percent co-immunoprecipitated [10]: ~20%
B2: CLV2-MYC (transient expression in N. benthamiana) (receptor, Arabidopsis thaliana, UniProt O80809 26-720, looked up)
chain: QLPDLDPQDKASLLIFRVSIHDLNRSLSTWYGSSCSNWTGLACQNPTGKVLSLTLSGLNLSSQIHPSLCKLSSLQSLDLSHNNFSGNIPSCFGSLRNLRTLNLSRNRFVGSIPATFVSLKELREVVLSENRDLGGVVPHWFGNFSMNLERVDFSFCSFVGELPESLLYLKSLKYLNLESNNMTGTLRDFQQPLVVLNLASNQFSGTLPCFYASRPSLSILNIAENSLVGGLPSCLGSLKELSHLNLSFNGFNYEISPRLMFSEKLVMLDLSHNGFSGRLPSRISETTEKLGLVLLDLSHNSFSGDIPLRITELKSLQALRLSHNLLTGDIPARIGNLTYLQVIDLSHNALTGSIPLNIVGCFQLLALMISNNNLSGEIQPELDALDSLKILDISNNHISGEIPLTLAGLKSLEIVDISSNNLSGNLNEAITKWSNLKYLSLARNKFSGTLPSWLFKFDKIQMIDYSSNRFSWFIPDDNLNSTRFKDFQTGGGEGFAEPPGKVEIKISAAVVAKDELSFSYNLLSMVGIDLSDNLLHGEIPEALFRQKNIEYLNLSYNFLEGQLPRLEKLPRLKALDLSHNSLSGQVIGNISAPPGLTLLNLSHNCFSGIITEKEGLGKFPGALAGNPELCVETPGSKCDPANIDASQEEIYQNELVEGPISIWIFCLSAFISFDFGVLGIFCSARARSYILQTKA
